For 20 molecules, Ratio/Fc-H and Ratio/FWT results are on record in patent publication USRE46585 (LABORATOIRE FRANCAIS DU FRACTIONNEMENT ET DES …, dated 2017).

The target of assay [1] is T1, FcRn-p3 fusion protein (human, UniProt P55899 24-297; P61769 21-119).
T1 construct: baculovirus expressed; coated on ELISA wells; not shown: amino terminal part of bacteriophage p3 protein and CVDE protein
Put plainly: phage ELISA pH6.

The target of assay [2] is T1, FcRn-p3 fusion protein. Put plainly: phage ELISA pH6 (est.).

T1 sequence (P55899 24-297, chain 1 of 2): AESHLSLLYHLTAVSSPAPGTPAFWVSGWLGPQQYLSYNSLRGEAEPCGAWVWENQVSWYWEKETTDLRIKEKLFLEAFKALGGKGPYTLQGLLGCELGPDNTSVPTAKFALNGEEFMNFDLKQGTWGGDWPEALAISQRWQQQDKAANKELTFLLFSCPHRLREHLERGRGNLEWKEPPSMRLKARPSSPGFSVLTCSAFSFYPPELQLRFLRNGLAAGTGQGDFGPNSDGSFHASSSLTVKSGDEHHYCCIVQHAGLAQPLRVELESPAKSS
T1 sequence (P61769 21-119, chain 2 of 2): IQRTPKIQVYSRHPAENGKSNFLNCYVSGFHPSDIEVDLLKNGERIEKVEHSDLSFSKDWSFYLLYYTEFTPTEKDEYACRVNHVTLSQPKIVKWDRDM

B1: C3A_01 (other)
chain: CPPCPAPELLGGPSVFLFPPKPKDTLMISRTPEVTCVVVDVSHEDPEVKFNWYVDGVEVHNAKTKPREEQYNSTYRVVSVLTVLHQDWLDGKEYKCKVSNKALPVPIEKTISKAKGQPREPQVYTLPPSRDELTKNQVSLTCLVKGFYPSDIAVEWESNGQPENNYKTTPPVLDSDGSFFLYSKLTVDKSRWQQGNVFSCSVMHEALHYHYTQKSLSLSPGK
notes: EU numbering
Take B1: in the assay with FcRn-p3 fusion protein [1], the Ratio/Fc-H was 2.5 fold. Moreover, in the assay with FcRn-p3 fusion protein [2], the Ratio/FWT is 8 fold.

B2: C4A_27 (other)
chain: CPPCPAPELLGGPSVFLFPPKPKDTLMISRTPEVTCVVADVSHEDPEVKFNWYVDGVEVHNAKTKPREEQYNSAYRVVSVLTVLHQDWLNGKEYKCKVSNKALPAPIEKTISKAKGQPREPQVYTLPPSRDELTKNQVSLTCLVKGFYPSDIVVEWGSNGQPENNYKTTPPVLDSDGSFFLYSKLTVDKSRWQQGNVFSCSVMHEALHYHYTQKSLSLSPGK
notes: EU numbering
On to B2, for which, in the assay with FcRn-p3 fusion protein [1], the Ratio/Fc-H was determined as 2.7 fold. In addition, the Ratio/FWT in the assay with FcRn-p3 fusion protein [2] was 8.7 fold.

B3: C4A_29 (other)
chain: CPPCPAPELLGGPSVFLFPPKPKDTLMISRTPEVTCVVVDVSHEDPEVKFNWYVDGVEVHNAKTKPREEQYNSTYRVVSVLPVLHQDWLDGKEYKCKVSNKALPAPIEKTISKAKGQPREPQVYTLPPSRDELTKSRVSLTCLVKGFYPSDIAVEWESNGQPENNYKTTPPVLDSDGSFFLYSKLTVDKSRWQQGNVFSCSVMHEALHYHYTQKSLSLSPGK
notes: EU numbering
Turning to B3, the Ratio/Fc-H with FcRn-p3 fusion protein [1] came to 3.8 fold. Further, the Ratio/FWT in the assay with FcRn-p3 fusion protein [2] is 12 fold.

B4: C3A_39 (other)
chain: CPPCPVPELLGGPSVFLFPPKPKDTLMISRTPEVTCVVVDVSHEDPEVKFNWYVDGVEVHNAKTKPREEQYNSTYRVVSVLTVLHQDWLNGKEYKCKVSNKALPAPIEKTISKAKGEPREPQVYTLPPSRDELTKNQVSLTCLVKGFYPSDIAVEWESNGQPENNYKTTPPVLDSDGSFFLYSKLTVDKSRWQQGNVFSCSVMHEALHYHYTQKSLSLSPGK
notes: EU numbering
B4: the Ratio/Fc-H with FcRn-p3 fusion protein [1] was 1.8 fold. Besides, in the assay with FcRn-p3 fusion protein [2], the Ratio/FWT was 5.6 fold.

B5: C4A_06 (other)
chain: CPPCTAPELLGGPSVFLFPPKPKDTLMISRTPEVTCVVVDVSHEDPEVKFNWYVDGVEVHNAKTKPREEQYNSTYRVVSVLTVLHQDWLDGKEYKCKVSNKALPVPIEKTISKAKGQPREPQVYTLPPSRDELTKNQVSLTCLVKGFYPSDIAVEWESNGQPENNYKTTPPVLDSDGSFFLYSKLTVDKSRWQQGNVFSCSVMHEALHYHYTQKSLSLSPGK
notes: EU numbering
B5: the Ratio/Fc-H with FcRn-p3 fusion protein [1] was determined as 3.6 fold. Besides, in the assay with FcRn-p3 fusion protein [2], the Ratio/FWT is 11.4 fold.

B6: C4A_24 (other)
chain: CPPCPAPELLGGPSVFLFPPKPKDTLMISRTPEVTCVVVDVSHEDPEVKFNWYVDGVEVHNAKTKPREEQYNSTYRVVSVLTVPHQDWLDGKEYKCKVSNKALPVPIEKTISKAKGQPREPQVYTLPPSRDELTKNQVSLTCLVKGFYPSDIAVEWESNGQPENNYKTTPPVLDSDGSFFLYSKLTVDKSRWQQGNVFSCSVMHEALHYHYTQKSLSLSPGK
notes: EU numbering
As to B6, the Ratio/Fc-H in the assay with FcRn-p3 fusion protein [1] amounted to 2.3 fold. Besides, in the assay with FcRn-p3 fusion protein [2], the Ratio/FWT amounted to 7.5 fold.

B7: C3A_42 (other)
chain: CPPCPAPELLGGPSVFLFPPKPKDTLMISRTPEVTCVVVDVSHEDPEVKFNWYVDGVEVHNAKTKPREEQYNSTYRVVSVLTVLHQDWLDGKEYKCKVSNKALPVPIEKTISKAKGQPREPQVYTLPPSRDELTKNQVSLTCLVKGFYPSDIAVEWESNGQPEKNYKTTPPMLDSDGSFFLYSKLTVDKSRWQQGNVFSCSVMHEALHYHYTQKSLSLSPGK
notes: EU numbering
Consider B7, for which, in the assay with FcRn-p3 fusion protein [1], the Ratio/Fc-H stood at 3.7 fold. Also, the Ratio/FWT in the assay with FcRn-p3 fusion protein [2] was 12 fold.

B8: C3A_08 (other)
chain: CPPCPAPELLGGPSVFLFPPKPKDTLMISRTPEVTCVVEDVSHEDPEVKFNWYVDGVEVHNAKTKPREEQYNSTYRVVSVLTVLHQDWLNGKEYKCKVSNKALPAPIEKTISKAKGQPREPQVYTLSPSRDELTKNQVSLTCLVKGFYPSDIVVEWESNGQPENNYKTTPPVLDSDGSFFLYSKLTVDKSRWQQGNVFSCSVMHEALHSHYTQKSLSLSPGK
notes: EU numbering
Take B8: the Ratio/Fc-H with FcRn-p3 fusion protein [1] was found to be 3 fold. Further, the Ratio/FWT in the assay with FcRn-p3 fusion protein [2] was 9.7 fold.

B9: C4A_15 (other)
chain: CPPCPAPDLLGGPSVFLFPPKPKDTLMISRTPEVTCVVVDVSHEDPEVKFNWYVDGVEVHNAKTKPREEQYNSTYRVVSVLTVLHQDWLDGKEYKCKVSNKALPAPIEKTISKAKGQPREPQVYTLPPSRDELTKNQVSLTCLVKGFYPSDIAVEWESNGQPENNYKTTPPVLDSDGSFFLYSKLTVDKSRWQQGNVFSCSVMHEALHYHYTQKSLSLSPGK
notes: EU numbering
Turning to B9, the Ratio/Fc-H in the assay with FcRn-p3 fusion protein [1] was 2.2 fold. Moreover, in the assay with FcRn-p3 fusion protein [2], the Ratio/FWT is 6.9 fold.

B10: C3A_07 (other)
chain: CPPCPAPELLGGPSVFLFPPKPKDTLMISRTPEVTCVVVDVSHEDPEVKFNWYVDGVEVHNAKTKPREEQYNSTYRVVSVLPVLHQDWLNGKEYKCKVSNKALPTPIEKTISKAKGQPREPQVYTLPPSRDELTKNQVSLTCLVKGFYPSDIVVEWESNGQPENNYKTTPPVLDSDGSFFLYSKLTVDKSRWQQGNVFSCSVMHEALHNHYTQKSLSLSPGK
notes: EU numbering
B10: the Ratio/Fc-H with FcRn-p3 fusion protein [1] amounted to 1.3 fold. In addition, the Ratio/FWT with FcRn-p3 fusion protein [2] is 4.2 fold.

B11: C4A_01 (other)
chain: CPPCPAPELLGGPSVFLFPPKPKDTLMISRTPEVTCVVVDVSHEDPEVKFNWYVDGVEVHNAKTKPREEQYNSTYRVVSVLTVLHQDWLDGKEYKCKVSNKALPAPIEKTISKAKGQPREPQVYTLPPSRDELTKNRVSLTCLVKGFYPSDIAVEWESNGQPEKNYKTTPPVLDSDGSFFLYSKLTVDKSRWQQGNVFSCSVMHEALHYHYTQKSLSLSPGK
notes: EU numbering
Turning to B11, in the assay with FcRn-p3 fusion protein [1], the Ratio/Fc-H was found to be 2.4 fold. The Ratio/FWT with FcRn-p3 fusion protein [2] worked out at 7.5 fold.

B12: C3A_24 (other)
chain: CPPCPAPELLGGPSVFLFPPKPKDTLMISRTPEVTCVVVDVSHEDPEVKFNWYVDGVEVHNAKTKPREEQYNSTYRVVSVLPVLHQDWLNGKEYKCKVSNKALPAPIEKTISKAKGQPREPQVYTLPPSRDELTKNQVSLTCLVKGFYPSDIAVEWESNGQPETNYKTTPPVLDSGGSFFLYSKLTVDKSRWQQGTVFSCSVMHEALHYHYTQKSLSLSPGK
notes: EU numbering
B12: the Ratio/Fc-H in the assay with FcRn-p3 fusion protein [1] is 2.9 fold. In addition, the Ratio/FWT in the assay with FcRn-p3 fusion protein [2] worked out at 9.2 fold.

B13: C3A_43 (other)
chain: CPPCPAPELLGGPSVFLFPPKPKDTLMISRTPEVTCVVVDVSHEDPEVKFNWYVDGVEVHNAKTKPREEQYNSTYRVVSVLTVLHQDWLDGKEYKCKVSNKALPAPIEKTISKAKGQPREPQVYTLPPSRDELTKNQVSLTCLVKGFYPSDIAVEWESNGQPENNYKTTPPVLDSDGSFFLYSKLTVDKSGWQQGNVFSCSVMHEALHYHYTQKSLSLSPGK
notes: EU numbering
Turning to B13, the Ratio/Fc-H with FcRn-p3 fusion protein [1] amounted to 2.5 fold. The Ratio/FWT in the assay with FcRn-p3 fusion protein [2] was 8.1 fold.

B14: C3A_31 (other)
chain: CPPCPAPELLGGPSVFLFPPKPKDTLMISRTPEVTCVVVDVSHEDPEVKFNWYVDGVEVHNAKTKPREEQYNSTYRVVSVLTVLHQDWLDGKEYKCKVSNKALPVPIEKTISKAKGQPREPQVYTLPPSRDELTKNQVSLTCLVKGFYPSDIAVEWESNGQPEKNYKTTPPVLDSGGSFFLYSKLTVDKSRWQQGNVFSCSVMHEALHYHYTQKSLSLSPGK
notes: EU numbering
As for B14, the Ratio/Fc-H with FcRn-p3 fusion protein [1] was found to be 2.2 fold. In addition, in the assay with FcRn-p3 fusion protein [2], the Ratio/FWT turned out to be 6.9 fold.

B15: C4A_32 (other)
chain: CPPCPAPELLGGPSVFLFPPKPKDTLMISRTPEVTCVVEDVSHEDPEVKFNWYVDGVEVHNAKTKPREEQYNSTYRVVSVLTVLHQDWLDGKEYKCKVSNKALPAPIEKTISKAKGQPREPQVYTLPPSRDELTKNQVSLTCLVKGFYPSDIVVEWESNGQPENNYKTTPPVLDSDGSFFLYSKLTVDKSRWQQGNVFSCSVMHEALHNHYTQKSLSLSPGK
notes: EU numbering
Take B15: in the assay with FcRn-p3 fusion protein [1], the Ratio/Fc-H was determined as 1.7 fold. The Ratio/FWT in the assay with FcRn-p3 fusion protein [2] came out at 5.4 fold.

B16: C4A_25 (other)
chain: CPPCPAPELLGGPSVFLFPPKPKDTLMISRTPEVTCVVVDVSHEDPEVKFNWYVDGVEVHNAKTKPREEQYNSTYRVVSVLTVLHQDWLDGKEYKCKVSNKALPVPIEKTISKAKGQPREPQVYTLPPSRDELTKNQVSLTCLVKGFYPSDIAVEWESNGQPENNYKTTPPMLDSDGSFFLYSKLTVDKSRWQQGNVFSCSVMHEALHYHYTQKSLSLSPGK
notes: EU numbering
Turning to B16, the Ratio/Fc-H with FcRn-p3 fusion protein [1] turned out to be 2.8 fold. For the same molecule, the Ratio/FWT in the assay with FcRn-p3 fusion protein [2] turned out to be 8.9 fold.

B17: C4A_18 (other)
chain: CPPCPAPELLGGPSVFLFPPKPKDTLMISRTPEVTCVVVDVSHEDPEVKFNWYVDGVEVHNAKTKPREEQYNSTYRVVSVLTVLHQDWLDGKEYKCKVSNKALPVPIEKTISKAKGQPREPQVYTLPPSRDELTKNQVSLTCLVKGFYPSDIVVEWESNGQPENNYKTTPPVLDSDGSFFLYSKLTVDKSRWQQGNVFSCSVMHEALHYHYTQKSLSLSPGK
notes: EU numbering
For B17, in the assay with FcRn-p3 fusion protein [1], the Ratio/Fc-H was found to be 2.5 fold. For the same molecule, the Ratio/FWT in the assay with FcRn-p3 fusion protein [2] was 8.1 fold.

B18: C3A_21 (other)
chain: CPPCPAPELLGGPSVFLFPPKPKDTLMISRTPEVTCVVVDVSHEDPEVKFNWYVDGVEVHNAKTKPREEQYNSTYRVVSVLTVLHQDWLDGKEYKCKVSNKALPVPIEKTISKAKGQPREPQVYTLPPSRDELTKNQVSLTCLVKGFYPSDIAVEWESNGQPENNYKTTPPVLDPDGSFFLYSKLTVDKSRWQQGNVFSCSVMHEALHYHYTQKSLSLSPGK
notes: EU numbering
In the case of B18, the Ratio/Fc-H with FcRn-p3 fusion protein [1] turned out to be 3 fold. Besides, in the assay with FcRn-p3 fusion protein [2], the Ratio/FWT was found to be 9.8 fold.

B19: C4A_28 (other)
chain: CPPCPAPELLGGPSVFLFPPKPKDTLMISRTPEVTCVVEDVSHEDPEVKFNWYVDGVEVHNAKTKPREEQYNSTYRVVSVLTVLHQDWLNGKEYKCKVSNKALPAPIEKTISKAKGQPREPQVYTLPPSRDELTKNQVSLTCLVKGFYPSDIVVEWESNGQPENNYKTTPPVLDSDGSFFLYSKLTVDKSRWQQGNVFSCSVMHEALHYHYTQKSLSLSPGK
notes: EU numbering
Take B19: the Ratio/Fc-H with FcRn-p3 fusion protein [1] came to 3.4 fold. In addition, in the assay with FcRn-p3 fusion protein [2], the Ratio/FWT came out at 10.8 fold.

B20: C3A_15 (other)
chain: CPPCPAPELLGGPSVFLFPPKPKDTLMISRTPEVTCVVEDVSHEDPEVKFNWYVDGVEVHNAKTKPREEQYNSTYRVVSVLAVLHQDWLNGKEYKCKVSNKALPAPIEKTISKAKGQPREPQVYTLPPSRDELTKNQVSLTCLVKGFYPSDIVVEWESNGQPENNYKTTPPVLDSDGSFFLYSKLTVDKSRWQQGNVFSCSVMHEALHNHYTQKSLSLSPGK
notes: EU numbering
As for B20, in the assay with FcRn-p3 fusion protein [1], the Ratio/Fc-H turned out to be 1.9 fold. Also, the Ratio/FWT with FcRn-p3 fusion protein [2] was 6 fold.
